Assay results: patent publication US8822407B2, “Preparation of conjugates comprising adenine derivatives and allergenic proteins and their use for specific immunotherapy of allengenic diseases” (Universita' Degli Studi di Firenze, priority 2010, dated 2014)

B1: nDer p2: purified natural allergen Der p2, major allergen from the house dust mite Dermatophagoides pteronyssinus (protein, UniProt P49278 18-146, looked up)
Mite group 2 allergen Der p 2: DQVDVKDCANHEIKKVLVPGCHGSEPCIIHRGKPFQLEAVFEANQNTKTAKIEIKASIDGLEVDVPGIDPNACHYMKCPLVKGQQYDIKYTWNVPKIAPKSENVVVTVKVMGDDGVLACAIATHAKIRD
modifications: natural purified
notes: purified natural allergen Der p2, major allergen from the house dust mite Dermatophagoides pteronyssinus

Experiments:
Assay type in all cases: cell-based, human
[1] = system: purified B cells; assay: B cell activation (tritiated thymidine incorporation); details: for Stimulation index (mean ± SE): B cell proliferation
Procedure: Circulating mononuclear cells (MNC) are isolated by Ficoll-Hypaque density gradient from buffy coats of healthy donors (Servizio Immunotrasfusionale e terapie cellulari, Azienda Ospedaliero Universitaria Pediatrica A. Meyer, Firenze). 200×10^6 MNC are then separated using the commercial CD19 isolation kit (Miltenyi) by the addition of 400 μl iron microbead-bound anti-CD19 monoclonal antibody followed by magnetic separation on LS column. 20×10^6 B cells are isolated by positive selection and are extensively washed by the use of calcium- and magnesium-free PBS and cultured in triplicates at the concentration of 1×10^6/ml/well in complete medium plus 10% foetal calf serum in 96-U plates. […] Plates are incubated in humidified atmosphere at 37° C. for 72 hrs and at the end 0.5 μCi tritiated thymidine is added to each well for further 16 hrs. The incorporated radioactivity is measured as already described in step (f) of Example 4.

[2] = system: NF-κB p50 subunit in purified CD14+ cells; assay: NF-κB activation: nuclear p50 in purified CD14+ cells; details: 2 hrs, allergens and conjugates 10 μg/ml, R-848 2 μg/ml
Procedure: The tubes are then incubated for 2 hrs in 5% CO2 humidified atmosphere at 37° C. and then washed with 10 ml PBS, centrifuged at 1500 rpm repeating the treatment thrice and the cellular pellet finally dried by the use of a micropipette and stored at −80° C. up to the assay. […] Two different protein amounts (0.5 and 2 μg) were incubated in 96w plates coated by the immobilized oligonucleotide containing the activated NF-κB consensus site (5′-[…]-3′), followed by the incubation with an antibody recognizing an epitope of the NF-κB p50 subunit. An HRP-conjugated secondary antibody was added to single wells and the colorimetric read-out was quantified by spectrophotometry. Values are reported as Optical Density. […] For the specificity of the assay, a wild-type consensus oligonucleotide was used as a competitor for NF-κB binding.

[3] = system: allergen-specific T cell lines; assay: Functional phenotype of allergen-specific T cell lines; details: SA-26E 0.085 μg/ml, alone or mixed with nDer p2 10 μg/ml
Procedure: Mononuclear cells from 10 atopic donors with sensitization towards Dermatophagoides pteronyssinus have been isolated by density gradient and 1×10^6 cells cultured in 2 ml complete medium plus 5% autologous serum in the presence of DP or nDer p2 allergens or their respective conjugates (DP-conj or nDer p2-conj) (all at 10 μg/ml) in 24 flat-bottomed plates (Costar). […] After 6 d incubation and addition of rIL-2 (Proleukin) (25 UI/ml), T cell blasts are further expanded by the addition of medium, fresh 5% autologous serum and 25 UI/ml rIL-2 every three days. After 15 d culture, T cell blasts from single cultures are collected, washed with sterile PBS, counted and used to assess allergen specificity, phenotype and function.
To assess allergen-specificity, 1×10^5 T cell blasts are cultured in 96 U-bottomed plates in 0.2 ml final volume in medium plus 5% autologous serum, 1×10^5 autologous irradiated (9000 R) mononuclear cells as APCs, DP or nDer p2 (10 μg/ml) and, after 3 d incubation, tritiated thymidine (3HTdR) (Amersham) is added. After further 16 hr incubation, single cultures are transferred on paper filters through the use of an Harvester apparatus (Tomtec) and radioactivity measured in a β-counter. […]

| Molecule | proliferation of purified B lymphocytes (in words) ([1]; thymidine incorporation) | p50 nuclear expression (NF-κB activation) [2] | modification of the cellular phenotype of allergen-specific T cells (TH2 towards TH1/TH0) [3] | Stimulation index (mean ± SE) ([1]; concentration 0.5 μg/ml) | Stimulation index (mean ± SE) ([1]; concentration 2.5 μg/ml) | Stimulation index (mean ± SE) ([1]; concentration 10 μg/ml) |
| --- | --- | --- | --- | --- | --- | --- |
| CCOCc1nc2c(N)nc3ccccc3c2n1CC(C)(C)O [Conj R-848, reference compound] | high levels of incorporation of radioactive thymidine |  |  |  |  |  |
| Nc1nc(SCCCC(=O)ON2C(=O)CCC2=O)nc2c1nc(O)n2Cc1ccccc1 [SA-26E, 4-(6-Amino-9-benzyl-8-hydroxy-9H-purin-2-ylsulfanyl)-butyric acid 2,5-dioxo-pyrrolidin-1-yl ester] |  | completely inactive | inactive |  |  |  |
| B1 |  | inactive |  | 1.6 ± 0.4 | 1.7 ± 0.2 | 1.7 ± 0.1 |
